US20050008573A1, “Peptides conjugates, their derivatives with metal complexes and use thereof for magnetic resonance imaging (mri)” (priority 2001, published 2005)

Details: gadolinium complex

gadolinium complex of (DTPAGLU)4(Lys)2Lys-Gly-Vapreotide [Example 3]
relaxivity: 15 mM⁻¹ s⁻¹
